Measurements published in the supplement of paper PMC7877785.
± gives the uncertainty stated by the source.

Assay: self-splicing fitness, log relative to wild type (ln ratio); higher = more splicing; Tetrahymena group I intron in knt gene, E. coli kanamycin selection, DiMSum; sequences stand for … in CUCUCU…GGAGGGAAAAGUUAUCAGGCAUGCACCUGGUAGCUAGUCUUUAAACCAAUAGAUUGCAUCGGUUUAAAAGGCAAGACCGUCAAAUUGCGGGAAAGGGGUCAACAGCCGUUCAGUACCAAGUCUCAGGGGAAACUUUGAGAUGGCCUUGCAAAGGGUAUGGUAAUAAGCUGACGGACAUGGUCCUAACCACGCAGCCAAGUCCUAAGUCAACAGAUCUUCUGUUGAUAUGGAUGCAGUUCACAGACUAAAUGUCGGUCGGGGAAGAUGUAUUCUUCUCAUAAGAUAUAGUCGGACCUCUCCUUAAUGGGAGCUAGCGGAUGAAGUGAUGCAACACUGGAGCCGCUGGGAACUAAUUUGUAUGCGAAAGUAUAUUGAUUAGUUUUGGAGUACUCGUGGUCG
In short: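 Fitness was computed with DiMSum as the error-weighted combination of replicate fold changes, kanamycin versus none, each normalised to wild type. The library randomised all eight intron nucleotides of the P1ex region, with the intron placed in the knt kanamycin-resistance gene on pET-22b(+) in E. coli BL21(DE3). Six replicate transformations were grown overnight at 37°C or 30°C on LB agar with or without 25 μg/mL kanamycin, plus 100 μg/mL carbenicillin, 50 μM IPTG and 0.2% rhamnose. Pooled colonies were amplicon-sequenced on an Illumina HiSeq 2500.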

Sequence	self-splicing fitness (ln) (30 °C)	self-splicing fitness (ln) (37 °C)
UAGCAGCAAUAUUACGAAUU	-2.58 ± 0.18	-2.66 ± 0.24
CGUCAGCAAUAUUACGAAAG	-0.9 ± 0.073	0.129 ± 0.096
CGUCAGCAAUAUUACGCUGG	-2.6 ± 0.3	-2.14 ± 0.34
GCAAAGCAAUAUUACGAUCA	-1.4 ± 0.12	-0.882 ± 0.11
CCAUAGCAAUAUUACGAAAU	-2.98 ± 0.37	
ACACAGCAAUAUUACGCUGA	-2.42 ± 0.096	-1.47 ± 0.083
CUACAGCAAUAUUACGGCGA	-2.97 ± 0.39	-2.91 ± 0.27
GUUAAGCAAUAUUACGAAUU	-1.72 ± 0.21	-1.4 ± 0.24
AAGAAGCAAUAUUACGGAGG	-3.92 ± 0.29	-2.96 ± 0.32
CAAAAGCAAUAUUACGAUGU	-2.32 ± 0.075	-1.66 ± 0.11
GUCAAGCAAUAUUACGUAAC	-1.33 ± 0.17	-0.545 ± 0.14
CUUCAGCAAUAUUACGGCUA	-3.01 ± 0.2	-2.06 ± 0.24
UACUAGCAAUAUUACGGUCU	-1.3 ± 0.094	-0.2 ± 0.13
UAGCAGCAAUAUUACGCACC	-0.936 ± 0.16	-0.423 ± 0.16
CCAUAGCAAUAUUACGUCUG	-1.4 ± 0.075	-0.687 ± 0.07
GAAUAGCAAUAUUACGUCAU	-1.07 ± 0.1	-0.865 ± 0.13
UAGAAGCAAUAUUACGGGGU	-3.13 ± 0.17	-1.27 ± 0.22
CACGAGCAAUAUUACGGCGU	-2.68 ± 0.21	-2.53 ± 0.26
GUUCAGCAAUAUUACGACAA	-1.06 ± 0.18	-0.319 ± 0.18
CACAAGCAAUAUUACGGGCA	-3.05 ± 0.14	-1.39 ± 0.099
AACAAGCAAUAUUACGCACU	0.195 ± 0.069	-0.195 ± 0.083
CUACAGCAAUAUUACGAGCC	-2.24 ± 0.24	-1.88 ± 0.31
AGACAGCAAUAUUACGGCGA	-0.438 ± 0.069	-0.143 ± 0.083
UUAUAGCAAUAUUACGCAGA	-2.06 ± 0.14	-1.25 ± 0.099
UCCAAGCAAUAUUACGAUGA	-0.0226 ± 0.05	0.466 ± 0.071
CUGAAGCAAUAUUACGGCGG	-0.674 ± 0.073	-0.503 ± 0.1

Sequence	self-splicing fitness (ln) (30 °C)	self-splicing fitness (ln) (37 °C)
CUCCAGCAAUAUUACGACUC	-3.66 ± 0.24	-2.24 ± 0.38
UUCAAGCAAUAUUACGUGGA	-2.17 ± 0.17	-2.52 ± 0.15
UUGAAGCAAUAUUACGGCAU	-0.14 ± 0.06	1.08 ± 0.08
AAGCAGCAAUAUUACGCGAC	-0.688 ± 0.22	-1.95 ± 0.25
CGGUAGCAAUAUUACGGAGA	-3.87 ± 0.32	-2.72 ± 0.21
GCGAAGCAAUAUUACGAUUU	-1.09 ± 0.057	-0.156 ± 0.075
CUAUAGCAAUAUUACGGUAG	-2.21 ± 0.14	-2.58 ± 0.2
AAAAAGCAAUAUUACGAGCG	-0.337 ± 0.12	-0.566 ± 0.11
ACUCAGCAAUAUUACGGUGG	-4.04 ± 0.22	-2.67 ± 0.18
GGUCAGCAAUAUUACGAAUA	-0.866 ± 0.13	-0.645 ± 0.14
AUGCAGCAAUAUUACGAGCU	-0.624 ± 0.073	-0.565 ± 0.088
CGGUAGCAAUAUUACGCAAU		-3.67 ± 0.46
CCGUAGCAAUAUUACGCAUU	-3.54 ± 0.31	-2.9 ± 0.47
UUGGAGCAAUAUUACGGACA	-2.52 ± 0.49	-1.91 ± 0.18
CUCCAGCAAUAUUACGCUUU	-2.78 ± 0.19	-2.8 ± 0.26
CAAUAGCAAUAUUACGUGAA	-4.02 ± 0.37	-1.7 ± 0.22
UCUCAGCAAUAUUACGGCAU	-2.27 ± 0.11	-2.4 ± 0.16
AAGCAGCAAUAUUACGGUCG	-1.34 ± 0.061	-0.879 ± 0.093
CGAGAGCAAUAUUACGAGUC	-3.99 ± 0.4	-3.75 ± 0.34
UACAAGCAAUAUUACGUCGA	-1.78 ± 0.08	-0.266 ± 0.082
CCCUAGCAAUAUUACGUACU	-2.78 ± 0.14	-2.65 ± 0.23
CCCAAGCAAUAUUACGAUGU	-3.53 ± 0.18	-2.04 ± 0.15
UUUUAGCAAUAUUACGGCAA	0.145 ± 0.12	-0.398 ± 0.15
CGGAAGCAAUAUUACGUACG	-3.87 ± 0.24	-2.26 ± 0.21
CUCGAGCAAUAUUACGGAUC		0.135 ± 0.27
GAAAAGCAAUAUUACGAAUC	-2.99 ± 0.21	-1.04 ± 0.18

Sequence	self-splicing fitness (ln) (30 °C)	self-splicing fitness (ln) (37 °C)
ACAGAGCAAUAUUACGAACU	-3.35 ± 0.21	-1.61 ± 0.21
CUUUAGCAAUAUUACGUGUA	-3.34 ± 0.19	-2.81 ± 0.24
UUAAAGCAAUAUUACGACCA	-0.0875 ± 0.22	0.312 ± 0.25
AUCCAGCAAUAUUACGACGU	-0.176 ± 0.057	0.696 ± 0.081
UUAAAGCAAUAUUACGGCGA	0.464 ± 0.17	0.659 ± 0.21
ACUCAGCAAUAUUACGAAGA	-0.868 ± 0.1	-0.958 ± 0.11
CGGAAGCAAUAUUACGCCGU	-2.88 ± 0.44	-1.91 ± 0.28
ACCUAGCAAUAUUACGCGCG	-0.971 ± 0.13	0.377 ± 0.13
GUAGAGCAAUAUUACGUGCA	-0.339 ± 0.11	0.541 ± 0.18
UGGAAGCAAUAUUACGAAUA	0.136 ± 0.41	-0.685 ± 0.28
GACUAGCAAUAUUACGCCAG	-1.31 ± 0.22	
GACAAGCAAUAUUACGAAGG	-4.06 ± 0.19	-2.27 ± 0.19
CAAAAGCAAUAUUACGACCG	-0.0202 ± 0.1	-0.497 ± 0.13
UUGCAGCAAUAUUACGUCCU	-0.816 ± 0.14	-0.682 ± 0.18
AUCGAGCAAUAUUACGAUGA	-3.37 ± 0.25	-1.86 ± 0.16
GAAUAGCAAUAUUACGCAUG	-0.0618 ± 0.089	-0.902 ± 0.091
AAUUAGCAAUAUUACGCACA	0.0525 ± 0.13	-0.475 ± 0.15
CAUCAGCAAUAUUACGAAGU	-3.41 ± 0.18	-1.52 ± 0.14
AAUAAGCAAUAUUACGUGUC	-3 ± 0.14	-0.777 ± 0.14
GUCGAGCAAUAUUACGCCUA		-1.1 ± 0.41
UACGAGCAAUAUUACGCGGU	-3.15 ± 0.2	-2.67 ± 0.26
GAGAAGCAAUAUUACGAAGU	-2.98 ± 0.24	-1.16 ± 0.27
CGUGAGCAAUAUUACGCGCU		-1.8 ± 0.36
AUAUAGCAAUAUUACGAGUU	-3.19 ± 0.18	-1.46 ± 0.15
UGCUAGCAAUAUUACGUCAA	-1.87 ± 0.13	-1.13 ± 0.12
